Test results from IntAct's records for PubMed 29892012.

B1: Coiled-coil alpha-helical rod protein 1 (Homo sapiens), Q8TD31 (parent)
chain: MFPPSGSTGLIPPSHFQARPLSTLPRMAPTWLSDIPLVQPPGHQDVSERRLDTQRPQVTMWERDVSSDRQEPGRRGRSWGLEGSQALSQQAEVIVRQLQELRRLEEEVRLLRETSLQQKMRLEAQAMELEALARAEKAGRAEAEGLRAALAGAEVVRKNLEEGSQRELEEVQRLHQEQLSSLTQAHEEALSSLTSKAEGLEKSLSSLETRRAGEAKELAEAQREAELLRKQLSKTQEDLEAQVTLVENLRKYVGEQVPSEVHSQTWELERQKLLETMQHLQEDRDSLHATAELLQVRVQSLTHILALQEEELTRKVQPSDSLEPEFTRKCQSLLNRWREKVFALMVQLKAQELEHSDSVKQLKGQVASLQEKVTSQSQEQAILQRSLQDKAAEVEVERMGAKGLQLELSRAQEARRRWQQQTASAEEQLRLVVNAVSSSQIWLETTMAKVEGAAAQLPSLNNRLSYAVRKVHTIRGLIARKLALAQLRQESCPLPPPVTDVSLELQQLREERNRLDAELQLSARLIQQEVGRAREQGEAERQQLSKVAQQLEQELQQTQESLASLGLQLEVARQGQQESTEEAASLRQELTQQQELYGQALQEKVAEVETRLREQLSDTERRLNEARREHAKAVVSLRQIQRRAAQEKERSQELRRLQEEARKEEGQRLARRLQELERDKNLMLATLQQEGLLSRYKQQRLLTVLPSLLDKKKSVVSSPRPPECSASAPVAAAVPTRESIKGSLSVLLDDLQDLSEAISKEEAVCQGDNLDRCSSSNPQMSS
partner: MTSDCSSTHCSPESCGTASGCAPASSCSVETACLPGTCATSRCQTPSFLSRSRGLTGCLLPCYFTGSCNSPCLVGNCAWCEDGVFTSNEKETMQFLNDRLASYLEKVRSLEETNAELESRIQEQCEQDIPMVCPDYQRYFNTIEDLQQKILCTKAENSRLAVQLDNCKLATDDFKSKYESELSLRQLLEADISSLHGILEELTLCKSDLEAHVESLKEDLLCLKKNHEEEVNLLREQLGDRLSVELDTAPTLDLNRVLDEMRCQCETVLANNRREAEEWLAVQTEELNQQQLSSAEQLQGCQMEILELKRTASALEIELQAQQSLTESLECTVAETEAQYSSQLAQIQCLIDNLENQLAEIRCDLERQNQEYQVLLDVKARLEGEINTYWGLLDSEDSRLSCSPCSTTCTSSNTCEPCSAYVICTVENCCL
B2: Glutaredoxin-3 (Homo sapiens), O76003 (parent)
chain: MAAGAAEAAVAAVEEVGSAGQFEELLRLKAKSLLVVHFWAPWAPQCAQMNEVMAELAKELPQVSFVKLEAEGVPEVSEKYEISSVPTFLFFKNSQKIDRLDGAHAPELTKKVQRHASSGSFLPSANEHLKEDLNLRLKKLTHAAPCMLFMKGTPQEPRCGFSKQMVEILHKHNIQFSSFDIFSDEEVRQGLKAYSSWPTYPQLYVSGELIGGLDIIKELEASEELDTICPKAPKLEERLKVLTNKASVMLFMKGNKQEAKCGFSKQILEILNSTGVEYETFDILEDEEVRQGLKAYSNWPTYPQLYVKGELVGGLDIVKELKENGELLPILRGEN
partner: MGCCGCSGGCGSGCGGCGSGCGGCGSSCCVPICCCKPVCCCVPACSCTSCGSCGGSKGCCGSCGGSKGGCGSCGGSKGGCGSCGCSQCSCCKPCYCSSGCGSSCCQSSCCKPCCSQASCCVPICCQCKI
B3: Myotubularin-related protein 9 (Homo sapiens), Q96QG7 (parent)
chain: MEFAELIKTPRVDNVVLHRPFYPAVEGTLCLTGHHLILSSRQDNTEELWLLHSNIDAIDKRFVGSLGTIIIKCKDFRIIQLDIPGMEECLNIASSIEALSTLDSITLMYPFFYRPMFEVIEDGWHSFLPEQEFELYSSATSEWRLSYVNKEFAVCPSYPPIVTVPKSIDDEALRKVATFRHGGRFPVLSYYHKKNGMVIMRSGQPLTGTNGRRCKEDEKLINATLRAGKRGYIIDTRSLNVAQQTRAKGGGFEQEAHYPQWRRIHKSIERYHILQESLIKLVEACNDQTHNMDRWLSKLEASNWLTHIKEILTTACLAAQCIDREGASILIHGTEGTDSTLQVTSLAQIILEPRSRTIRGFEALIEREWLQAGHPFQQRCAQSAYCNTKQKWEAPVFLLFLDCVWQILRQFPCSFEFNENFLIMLFEHAYASQFGTFLGNNESERCKLKLQQKTMSLWSWVNQPSELSKFTNPLFEANNLVIWPSVAPQSLPLWEGIFLRWNRSSKYLDEAYEEMVNIIEYNKELQAKVNILRRQLAELETEDGMQESP
partner: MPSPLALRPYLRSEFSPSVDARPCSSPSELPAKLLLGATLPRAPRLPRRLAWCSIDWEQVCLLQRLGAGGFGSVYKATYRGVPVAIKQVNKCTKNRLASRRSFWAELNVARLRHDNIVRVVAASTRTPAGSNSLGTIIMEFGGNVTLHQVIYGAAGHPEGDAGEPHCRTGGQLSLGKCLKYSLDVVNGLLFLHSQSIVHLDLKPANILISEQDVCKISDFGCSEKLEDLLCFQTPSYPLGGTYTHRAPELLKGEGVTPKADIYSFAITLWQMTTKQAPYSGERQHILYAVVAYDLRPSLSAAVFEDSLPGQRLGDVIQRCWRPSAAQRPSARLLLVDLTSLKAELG
B4: Coiled-coil alpha-helical rod protein 1 (Homo sapiens), Q8TD31 (parent)
chain: B1 chain
partner: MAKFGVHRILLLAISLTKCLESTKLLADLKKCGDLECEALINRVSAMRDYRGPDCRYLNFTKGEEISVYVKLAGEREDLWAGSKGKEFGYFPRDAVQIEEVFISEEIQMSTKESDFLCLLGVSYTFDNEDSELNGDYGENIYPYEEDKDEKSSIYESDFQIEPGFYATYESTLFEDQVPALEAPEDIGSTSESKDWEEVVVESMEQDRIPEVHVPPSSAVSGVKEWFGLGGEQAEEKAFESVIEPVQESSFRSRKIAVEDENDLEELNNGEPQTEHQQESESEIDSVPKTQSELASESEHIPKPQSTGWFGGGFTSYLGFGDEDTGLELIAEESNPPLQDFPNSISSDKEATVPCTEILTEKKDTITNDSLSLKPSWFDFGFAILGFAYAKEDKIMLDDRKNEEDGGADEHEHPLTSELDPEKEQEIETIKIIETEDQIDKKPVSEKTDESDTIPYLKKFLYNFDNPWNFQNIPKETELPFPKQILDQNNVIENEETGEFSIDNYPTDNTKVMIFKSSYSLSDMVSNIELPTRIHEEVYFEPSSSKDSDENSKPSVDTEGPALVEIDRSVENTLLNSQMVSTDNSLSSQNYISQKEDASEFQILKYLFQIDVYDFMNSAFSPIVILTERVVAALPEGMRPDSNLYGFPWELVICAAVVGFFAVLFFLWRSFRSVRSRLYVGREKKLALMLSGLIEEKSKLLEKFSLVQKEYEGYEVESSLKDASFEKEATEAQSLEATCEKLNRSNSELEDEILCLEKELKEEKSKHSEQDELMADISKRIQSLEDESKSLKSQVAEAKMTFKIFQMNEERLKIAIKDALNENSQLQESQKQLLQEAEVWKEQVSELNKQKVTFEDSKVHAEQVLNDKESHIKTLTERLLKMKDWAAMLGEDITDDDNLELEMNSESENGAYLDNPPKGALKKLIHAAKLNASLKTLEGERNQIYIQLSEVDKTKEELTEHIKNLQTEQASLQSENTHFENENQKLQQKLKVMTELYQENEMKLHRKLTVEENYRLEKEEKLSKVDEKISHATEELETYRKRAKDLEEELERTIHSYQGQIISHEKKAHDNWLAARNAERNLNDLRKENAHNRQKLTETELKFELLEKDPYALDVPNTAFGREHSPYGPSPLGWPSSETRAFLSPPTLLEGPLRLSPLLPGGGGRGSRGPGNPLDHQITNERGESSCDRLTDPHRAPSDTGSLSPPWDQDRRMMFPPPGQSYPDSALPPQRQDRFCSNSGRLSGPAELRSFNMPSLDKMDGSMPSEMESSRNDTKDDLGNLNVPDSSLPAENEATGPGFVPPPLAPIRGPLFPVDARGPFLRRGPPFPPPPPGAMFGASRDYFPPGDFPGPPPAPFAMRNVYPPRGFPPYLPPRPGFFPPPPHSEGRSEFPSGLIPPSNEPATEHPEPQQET

Variants of: B1
Conditions: with KRT40, Q6A162

Variant	effect of a mutation on the interaction
W337R	with no effect

Variants of: B2
Conditions: with kra56_human KRTAP5-6, Q6L8G9

Variant	effect of a mutation on the interaction
P145A	with no effect

Variants of: B3
Conditions: with mos_human MOS

Variant	effect of a mutation on the interaction
R359S	with no effect

Variants of: B4
Conditions: with mia2_human MIA2, Q96PC5

Variant	effect of a mutation on the interaction
W337R	disrupting interaction strength
